Consider 1 substance from publication PMC10759225.

This test deals with TAX peptide, a peptide of the human T-cell leukemia virus type I peptide on HLA-A2 (human). The test can be described thus: data from Cole et al. (2013); the method is not told in this article; the reference is the unmutated A6-TCR.

With “A6-TCR with mutated CDR3 beta loop (PDB 4FTV)”, the fold enhancement of binding over the parent A6-TCR stood at 1000 fold.
